These results are taken from patent publication US20190241648A1 (STATEN BIOTECHNOLOGY B V, published 2019).

What all share (assay): peptide microarray
The target in one test is T1, ApoC3 peptide L67A (human, not fully specified; cyclic (thioether)).
T1 peptide: DKFSEFWDADPEV

In another test the target is T2, ApoC3 peptide L67E (human, thioether (positions not given here); not fully specified (bridges); also: thioether between a C-terminal Cys side chain and a modified N-terminus, the Cys is not in the chain).
T2 peptide: DKFSEFWDEDPEV

The next test has as its target T3, ApoC3 peptide S62F (human, not fully specified; cyclic (thioether)).
T3 peptide: DKFFEFWDLDPEV

In a further test the target is T4, ApoC3 peptide E63C (human, not fully specified; cyclic (thioether)).
T4 peptide: DKFSCFWDLDPEV

The target in a further test is T5, ApoC3 peptide E63Y (human, cyclic (thioether)).
T5 peptide: DKFSYFWDLDPEV

Another test deals with T6, ApoC3 peptide … D66R (human, not fully specified (bridges); also: cyclic constrained).
T6 peptide: DKFSEFWRLDPEV
The gist of the method:
(§1)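 ApoC3 peptide microarrays incubated with antibody samples and then stained with goat anti-human IgG (Fc) DyLight680 plus anti-HA DyLight800 control antibody. Scanned at intensity 7/7 (red/green); a secondary-only prestain checked for background, and framing HA peptides served as quality control.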

The target of the next test is T7, ApoC3 peptide … P69C (human, not fully specified (bridges); also: cyclic constrained).
T7 peptide: DKFSEFWDLDCEV
The gist of the method:
as §1

A further test addresses T8, ApoC3 peptide … F64Y (human, not fully specified (bridges); also: cyclic constrained).
T8 peptide: DKFSEYWDLDPEV
The gist of the method:
as §1

In another test the target is ApoC3 peptide … P69S (human, cyclic constrained). An outline of the steps: as §1
The target in a further test is T9, ApoC3 peptide … D59A (human, cyclic constrained).
T9 peptide: AKFSEFWDLDPEV
An outline of the steps:
as §1

A further test addresses ApoC3 peptide … V71H (human, cyclic constrained). An outline of the steps:
as §1

The target of the next test is ApoC3 peptide … S62I (human, cyclic constrained). The gist of the method: as §1
In a further test the target is ApoC3 peptide … S62C (human, cyclic constrained). An outline of the steps:
as §1

A further test concerns the target ApoC3 peptide … S62N (human, cyclic constrained). The gist of the method: as §1
Another test has as its target T10, ApoC3 peptide … L67S (human, not fully specified (bridges); also: cyclic constrained).
T10 peptide: DKFSEFWDSDPEV
An outline of the steps:
as §1

The target of a further test is T11, ApoC3 peptide … F61M (human, not fully specified (bridges); also: cyclic constrained).
T11 peptide: DKMSEFWDLDPEV
An outline of the steps:
as §1

The target of another test is ApoC3 peptide … V71P (human, cyclic constrained). An outline of the steps: as §1
In the next test the target is T12, ApoC3 peptide … E70L (human, not fully specified (bridges); also: cyclic constrained).
T12 peptide: DKFSEFWDLDPLV
An outline of the steps:
as §1

The next test deals with ApoC3 peptide … V71Y (human, cyclic constrained). An outline of the steps:
as §1

The target of the next test is T13, ApoC3 peptide … D59C (human, cyclic constrained).
T13 peptide: CKFSEFWDLDPEV
An outline of the steps:
as §1

Another test has as its target T14, ApoC3 peptide … D66N (human, not fully specified (bridges); also: cyclic constrained).
T14 peptide: DKFSEFWNLDPEV
The gist of the method: as §1

In the next test the target is T15, ApoC3 peptide … E70P (human, not fully specified (bridges); also: cyclic constrained).
T15 peptide: DKFSEFWDLDPPV
An outline of the steps:
as §1

The next test has as its target T16, ApoC3 peptide … K60Y (human, not fully specified (bridges); also: cyclic constrained).
T16 peptide: DYFSEFWDLDPEV
An outline of the steps: as §1

The next test addresses T17, ApoC3 peptide … F61W (human, not fully specified (bridges); also: cyclic constrained).
T17 peptide: DKWSEFWDLDPEV
The gist of the method: as §1

For a further test, the target named is T18, ApoC3 peptide … E70Y (human, cyclic constrained).
T18 peptide: DKFSEFWDLDPYV
The gist of the method: as §1

A further test addresses T19, ApoC3 peptide … D59S (human, cyclic constrained).
T19 peptide: SKFSEFWDLDPEV
The gist of the method:
as §1

The target of the next test is T20, ApoC3 peptide … F64C (human, not fully specified (bridges); also: cyclic constrained).
T20 peptide: DKFSECWDLDPEV
The gist of the method:
as §1

The target of test [1] is T21, ApoC3 peptide … G41V (human).
T21 sequence (peptide, cyclic constrained): ARVWVTDGFSSLK

In test [2] the target is T22, ApoC3 peptide … V43T (human).
T22 sequence (peptide, cyclic constrained): ARGWTTDGFSSLK

Test [3] deals with T23, ApoC3 peptide … V43Q (human).
T23 sequence (peptide, cyclic constrained): ARGWQTDGFSSLK

The target in test [4] is T24, ApoC3 peptide … G41T (human).
T24 sequence (peptide, cyclic constrained): ARTWVTDGFSSLK

The target of test [5] is T25, ApoC3 peptide … V43W (human).
T25 sequence (peptide, cyclic constrained): ARGWWTDGFSSLK

Test [6] deals with T26, ApoC3 peptide … D45T (human).
T26 sequence (peptide, cyclic constrained): ARGWVTTGFSSLK

In test [7] the target is T27, ApoC3 peptide … G41P (human).
T27 sequence (peptide, cyclic constrained): ARPWVTDGFSSLK

Ends that are not written are not given here.

B1: anti-ApoC3 antibody 6A6 (antibody, V domains shown)
VH: EVQLVESGGGLVQPGGSLRLSCAASGFTFSSYAGRWVRQVPGKGLEWVSSINAGGGSTSYADSVKGRFTISRDNAKNTLYLQMNSLKPEDTAKYYCTQNSYRYWGQGTRVAVSS
VL: DVVLTQTPGSLSVVPGESASISCKASQSLIHTDGKTYLYWLLQKPGQRPQLLIYQVSSHESGVPDRFTGSGSGTDFTLKISGVKAEDAGVYYCAQATYNPRTFGQGTKLEIK
notes: it was detected with goat anti-human IgG (Fc); also called mAb 6A6; llama antibody 6A6
Take B1: the % of binding to wild-type peptide is 9.07% with ApoC3 peptide L67A; 8.52% with ApoC3 peptide L67E; 9.54% in the test with ApoC3 peptide S62F; 7.93% with ApoC3 peptide E63C; 8.92% in the test with ApoC3 peptide E63Y; 0% in the test with ApoC3 peptide … D66R. Also, the “% of binding to wild-type peptide” value with ApoC3 peptide … P69C was 28.9%; in the test with ApoC3 peptide … F64Y, 86.4%; in the test with ApoC3 peptide … P69S it was 75.6%; with ApoC3 peptide … D59A it was 86.4%; with ApoC3 peptide … V71H, 75.9%; in the test with ApoC3 peptide … S62I, 129%. The “% of binding to wild-type peptide” value in the test with ApoC3 peptide … S62C was 10.4%; with ApoC3 peptide … S62N, 126%; with ApoC3 peptide … L67S it was 26.5%; in the test with ApoC3 peptide … F61M it was 56.5%; with ApoC3 peptide … V71P it was 110%; with ApoC3 peptide … E70L, 1.22%. Further, the “% of binding to wild-type peptide” value with ApoC3 peptide … V71Y is 87.3%; in the test with ApoC3 peptide … D59C, 69.2%; with ApoC3 peptide … D66N it was 0%; with ApoC3 peptide … E70P, 2.53%; in the test with ApoC3 peptide … K60Y, 83.9%; with ApoC3 peptide … F61W it was 32.9%. The figures for the “% of binding to wild-type peptide” value with ApoC3 peptide … E70Y, with ApoC3 peptide … D59S and in the test with ApoC3 peptide … F64C were 4.49%, 87.5% and 76.4%, respectively.

B2: anti-ApoC3 antibody 14C7 (antibody, V domains shown)
VH: QVQVQESGPGLVKPSQTLSLTCTVSGGSITTNSYYWSWIRQPPGKGLEWMGAIDYSGDTYYSPSLKSRTSISRDTSKNQFTLQLTSVTPEDTAVYYCVSRIPTGEYWGQGTQVTVSS
VL: QTVVTQEPSLSVSPGGTVTLTCGLNSGSVTSSNYPDWYQQTPGQAPRLLIYNTNSRHSGVPSRFSGSISGNKAALTITGAQPEDEADYYCALYMGSDSVVFGGGTHLTVL
notes: it was detected with goat anti-human IgG (Fc); also called mAb 14C7; llama antibody 14C7
Regarding B2, the % of binding to wild-type peptide came to 8.76% in [1]; 9.94% in test [2]; 7.49% in [3]; 9.44% in test [4]; 8.98% in test [5]; 8.67% in [6]. For the same molecule, in test [7], the % of binding to wild-type peptide amounted to 8.7%.
